Tests used:
[1] = molecular target: GST-tagged E. coli hinT H101N (E. coli) (UniProt P0ACE7); experiment: BLI; GST-hinT (90 nM) immobilised on anti-GST biosensors; sucA-AMP 500 to 7.81 nM, unmodified sucA at 500 nM; 10 mM Tris pH 8, 150 mM NaCl, 0.1% Triton X-100; KD from steady-state responses, one site
[2] = molecular target: GST-tagged H. sapiens hinT H112N (human) (UniProt P49773); experiment: as above
[3] = molecular target: AMPylated GlnA (glutamine synthetase), recombinant (E. coli) (UniProt P0A9C5); experiment: cryo-EM structure; GlnA (4.68 mg/ml) mixed with hinT (3.29 mg/ml), 1:3 molar ratio of monomers; 10 mM Tris pH 8, 150 mM NaCl, 2 mM DTT

GST-tagged H. sapiens hinT H112N (human), sequence (P49773 whole entry H112N): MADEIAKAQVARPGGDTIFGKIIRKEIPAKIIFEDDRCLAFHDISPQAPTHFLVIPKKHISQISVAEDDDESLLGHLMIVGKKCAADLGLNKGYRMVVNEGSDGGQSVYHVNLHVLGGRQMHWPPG

Kd [1]	Kd [2]	stoichiometry N (hinT dimers per GlnA dodecamer) [3]	Substance
27 nM	10 nM		AMPylated sucA (from UniProt P0AFG3 1-933) (enzyme)
		< 6	E. coli hinT H101N (untagged) (from UniProt P0ACE7 1-119) (enzyme)

Source: PMC12375108
